Data on one molecule can be found in US20190062422A1 (MorphoSys, published 2019).

This test deals with T1, mouse IL-17RB (mouse, UniProt Q9JIP3 18-286).
T1 construct: extracellular domain; also called IL17 receptor B
T1 sequence (looked up): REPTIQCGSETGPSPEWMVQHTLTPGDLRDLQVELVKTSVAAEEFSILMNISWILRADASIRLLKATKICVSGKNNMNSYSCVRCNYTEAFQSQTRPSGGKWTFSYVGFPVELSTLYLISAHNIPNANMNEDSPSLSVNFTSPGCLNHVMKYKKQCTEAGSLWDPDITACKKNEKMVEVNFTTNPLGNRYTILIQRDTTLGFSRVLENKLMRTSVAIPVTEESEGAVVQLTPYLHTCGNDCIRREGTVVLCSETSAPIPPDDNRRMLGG
Nature of the test: MSD receptor interaction assay, coated receptor, biotinylated mouse IL17C, streptavidin detection. The protocol: To test binding of mouse IL17 to its putative receptor, IL17 receptor E an interaction assay was set up. The assay setup is depicted in FIG. 1A. In brief, IL17 receptors B and E were coated on a Multi-array® 384-well plate Standard plate (Meso Scale Discovery; #L21XA-4) and biotinylated mouse IL17C was added. Binding of mouse IL17C to its receptor was measured via binding of Streptavidin in a MSD Sector Imager 6000 (Meso Scale Discovery, Gaithersburg, Md., USA).

B1: mouse IL17C (ligand, UniProt Q8K4C5 17-194, looked up)
chain: DPPSWGKPRSHRTLRCYSAEELSHGQAPPHLLTRSARWEQALPVALVASLEATGHRRQHEGPLAGTQCPVLRPEEVLEADTHERSISPWRYRIDTDENRYPQKLAVAECLCRGCINAKTGRETAALNSVQLLQSLLVLRRQPCSRDGTADPTPGSFAFHTEFIRVPVGCTCVLPRSTQ
modifications: biotinylated in the receptor interaction, inhibition and serum stability assays (sites not given)
notes: Bought recombinant protein; About 22 kDa reduced and about 40 kDa non-reduced on SDS-PAGE; Used plain (coated, ELISA) or biotinylated; also called biotinylated mouse IL17C; biotin-IL17C
As for B1, the binding result was “no binding”.
